Our source for the protein stability index values is the supplement of paper PMC10724198.

± gives the standard deviation of the averaged measurements.
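Also: PSI is a weighted mean of sequencing reads over stability bins, variants kept only with over 10 reads, mCherry proximal and sfGFP distal, peptide attached via GGGS linker.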

In this series the test system is Saccharomyces cerevisiae. The experiment in a line: protein stability index of tFT-peptide fusion (C-terminal peptide) (PSI (0-1 scale)); higher = more stable (slower turnover). The following applies: genetic background: wild type; temperature: 30 C. The protocol: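 Multiplexed protein stability (MPS) profiling in S. cerevisiae. Random 12-aa peptides (tFT-X12 library) are fused to the C-terminus of a sfGFP-mCherry tandem fluorescent timer, after mCherry and a GGGS linker. Cells are FACS-sorted into 8 mCherry/sfGFP bins and deep-sequenced. The protein stability index (PSI) is the read-weighted bin average, scaled from 0 (unstable) to 1 (stable). Only peptides with >10 reads are reported; cells were grown at 30 °C in SC-His with glucose.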
Take FSYCFRLLPSSL: the protein stability index came to 0.558 ± 0.096.
Next, FTCVVRRGDIQL: 0.675 ± 0.056; FTFFFNCYSRSS: 0.655 ± 0.038.
FTPPPLLLPPPP registered a protein stability index of 0.698 ± 0.0037.
With FTWRTIRPRCQW, the protein stability index amounted to 0.7184 ± 0.005.
The figure for FTYGPVQGAARG is 0.717 ± 0.015.
The figure for FVCCSIRFGCGW is 0.604 ± 0.014; for FVFDVTAYRGLL it is 0.738 ± 0.03; for FVFWCFGSFCSC it is 0.553 ± 0.015.
As to FVGMLSDRAPPP, the protein stability index is 0.742 ± 0.041.
The figure for FVGSFYWSGFYV is 0.70213 ± 0.00049; for FVGSVFWCWSGR it is 0.706 ± 0.032.
FVLLSPRYSPPR registered a protein stability index of 0.676 ± 0.027.
The figure for FVSFTAVALFFG is 0.567 ± 0.035; for FVSGSVCPLLPP it is 0.667 ± 0.026; for FVSVSVRFHHSF it is 0.575 ± 0.056.
Next, FVVAERSDRNLV: 0.6875 ± 0.00093; FWGGGRGLVGEV: 0.664 ± 0.024.
The figure for FWGQNKVCLSCQ is 0.571 ± 0.09; for FWGRYIGRDRGT it is 0.62 ± 0.12; for FWMIYPHLLTPP it is 0.629 ± 0.036.
For the sequence FYCSWGGNDVDN, the protein stability index came to 0.692 ± 0.075.
The figure for FYLLTASVCGMF is 0.53 ± 0.0053; for FYPRPTVPPHGL it is 0.585 ± 0.024; for GAAKDYLMALEG it is 0.705 ± 0.076.
The figure for GAAVWGPLCVWL is 0.6534 ± 0.0052; for GAEAFWAVRGGG it is 0.721 ± 0.009; for GAGAVRPPARAS it is 0.699 ± 0.059.
Next, GAGGGRSERERG: 0.593 ± 0.0074; GAGLSLALSGPL: 0.607 ± 0.0094; GAGRGLRQGSGG: 0.666 ± 0.043.
For GAIKKTQGGGYK, the protein stability index amounted to 0.69 ± 0.019.
Next, GAKVALLSFGFA: 0.667 ± 0.1; GALPPPPARGDL: 0.768 ± 0.024; GAMVVRSSSPWT: 0.685 ± 0.019.
The figure for GANSILRDIEFL is 0.69 ± 0.05.
Next, GARGGSGGGQPG: 0.661 ± 0.019.
In turn, GARGIHSVRVRR had a protein stability index of 0.713 ± 0.053.
Consider GARGLVGHWRRG, for which the protein stability index is 0.615 ± 0.035.
As to GARGRAYDRTSQ, the protein stability index was 0.669 ± 0.038.
The figure for GASSSPAQGCSL is 0.691 ± 0.048.
Next, GATAGNPEATPS: 0.624 ± 0.074; GATLGRQEPGHS: 0.671 ± 0.056; GAVGDRVRVCGS: 0.668 ± 0.02.
GAWVAVTWAAGL showed a protein stability index of 0.729 ± 0.018.
The figure for GAWVFLSSRVVH is 0.7227 ± 0.0054; for GCCACDIGGEGG it is 0.642 ± 0.0079.
The sequence GCCWVVISPAGY returned a protein stability index of 0.616 ± 0.044.
Next, GCFGLLVSSLFS: 0.7111 ± 0.0024.
The figure for GCGARSVQSLGD is 0.707 ± 0.039; for GCGGGVCGWWDA it is 0.916 ± 0.12.
GCGGVGGFGGGL: the protein stability index turned out to be 0.605 ± 0.047.
Next, GCGREGGGLDKD: 0.781 ± 0.094.
Next, GCGRGGIAGGPR: 0.702 ± 0.0014.
The figure for GCGSVVVGVGGG is 0.652 ± 0.028; for GCLCWVLSGRGA it is 0.68 ± 0.035.
In the case of GCQLLSEVSVCL, the protein stability index came out at 0.667 ± 0.0079.
Next, GCRRGGGFLECV: 0.633 ± 0.034; GCRRGGGMERAQ: 0.649 ± 0.05; GCSLWCPDFCLC: 0.665 ± 0.0097.
The figure for GCVVLGFDSVAV is 0.842 ± 0.2.
The figure for GDECHSCSSPIA is 0.786 ± 0.13.
Consider GDGGCKVEWVRG, for which the protein stability index was found to be 0.724 ± 0.012.
The figure for GDGLGFNRPNGR is 0.659 ± 0.025.
The sequence GDGWPTRSGGTG returned a protein stability index of 0.701 ± 0.01.
The figure for GDISILGSEYSM is 0.728 ± 0.0091; for GDLASASAWGVR it is 0.681 ± 0.026.
Next, GDPWLGVRNAVG: 0.749 ± 0.22; GDQTLVSSRQSG: 0.6603 ± 0.002; GDRGFTTEAGNC: 0.67 ± 0.018.
Next, GDRGTLTPLRRQ: 0.678 ± 0.0073; GDSSRVGPVGRA: 0.714; GDVRLWMRGIER: 0.803 ± 0.077.
GEECGRERLMCF returned a protein stability index of 0.7291 ± 0.0055.
The figure for GEEEGSQGGCEV is 0.6611 ± 0.0061.
Next, GEGFLRVGLADV: 0.761 ± 0.09; GEGLGIGGYVRG: 0.672 ± 0.044; GEKSSDDYEVKD: 0.6554 ± 0.002.
The sequence GESGGVGGQCWR had a protein stability index of 0.74 ± 0.0082.
The figure for GESPSRVRSSAG is 0.694 ± 0.036.
On to GESSLSTGAQHK, for which the protein stability index is 0.67 ± 0.021.
Next, GESWEKVMNKRM: 0.704 ± 0.049; GFAALLSSLFFL: 0.683 ± 0.061; GFAIWRDGKYRR: 0.674 ± 0.022.
As to GFCSVIVLSLLL, the protein stability index stood at 0.487 ± 0.041.
In turn, GFFSCAPFPFNG displayed a protein stability index of 0.741 ± 0.082.
The figure for GFGILGLPQPCV is 0.662 ± 0.067.
The figure for GFINYDHKVIRI is 0.77 ± 0.023; for GFLCGFVGVFAD it is 0.56953 ± 0.00032; for GFLGTLARAGRE it is 0.657 ± 0.068.
In turn, GFLVALVSRIGW showed a protein stability index of 0.565 ± 0.037.
Turning to GFRALRCPTAFS, the protein stability index was found to be 0.742 ± 0.078.
Consider GFRFSERRFPGL, for which the protein stability index was 0.733 ± 0.0092.
Take GFRGGAYRWCIS: the protein stability index was 0.701 ± 0.03.
The figure for GFSGLRGFWSGM is 0.713 ± 0.04.
The figure for GFSGSPWSNPFV is 0.8663 ± 0.0025; for GFSKNCSCVVLC it is 0.559 ± 0.029.
The figure for GFVGTVHLKCIS is 0.642 ± 0.031.
As for GFVRGDRSGVGG, the protein stability index worked out at 0.702 ± 0.036.
The figure for GFWSRIGDLFRG is 0.698 ± 0.037.
Consider GGAGEAWGGLRW, for which the protein stability index was 0.767 ± 0.025.
Next, GGAGGVVGGGGG: 0.616 ± 0.018; GGARVAVCEGGE: 0.771 ± 0.026.
As for GGAVRSGRLFCC, the protein stability index was 0.648 ± 0.022.
GGAWESGRVEQV: the protein stability index amounted to 0.684 ± 0.041.
Next, GGCAGGVGRLAV: 0.692 ± 0.011.
The figure for GGCFGGVGGGSG is 0.707 ± 0.034; for GGCLSVLGLGSV it is 0.688 ± 0.031; for GGCRQKPRGGAD it is 0.666 ± 0.09.
GGCSDKVVRGGV gave a protein stability index of 0.695 ± 0.014.
Next, GGCVGVLGGWGV: 0.695 ± 0.012; GGDGGGERGEGK: 0.701 ± 0.027.
Next, GGDVHGEGNVCG: 0.698 ± 0.027; GGDWVGHVLDLW: 0.708 ± 0.012.
The figure for GGEGGWLGEGIG is 0.59 ± 0.0098; for GGESENEVGSRS it is 0.644 ± 0.038.
